Data from patent US20140087995A1 (published 2014).
Numbered stars: 1 amine (or outer) side, 2 acyl side, 3 side chain; on linkers, the order of the positions; unused ones are H or OH. Bridge positions count the residues as written; N and C are the ends. Side chains are listed from the residue outwards. Ends that are not written are not given here. * marks the point of attachment. C20 diacid = O=C(O)CCCCCCCCCCCCCCCCCCC(=O)*; γGlu = O=C(O)[C@H](CCC(=O)[*:2])N[*:1]; AEEA = NCCOCCOCC(=O)O

T1: human amylin receptor (amylin 3(a) receptor: human calcitonin receptor co-expressed with RAMP-3) (human, UniProt P30988 25-474; O60896 24-148, limits assumed)
T1 sequence (looked up) 1: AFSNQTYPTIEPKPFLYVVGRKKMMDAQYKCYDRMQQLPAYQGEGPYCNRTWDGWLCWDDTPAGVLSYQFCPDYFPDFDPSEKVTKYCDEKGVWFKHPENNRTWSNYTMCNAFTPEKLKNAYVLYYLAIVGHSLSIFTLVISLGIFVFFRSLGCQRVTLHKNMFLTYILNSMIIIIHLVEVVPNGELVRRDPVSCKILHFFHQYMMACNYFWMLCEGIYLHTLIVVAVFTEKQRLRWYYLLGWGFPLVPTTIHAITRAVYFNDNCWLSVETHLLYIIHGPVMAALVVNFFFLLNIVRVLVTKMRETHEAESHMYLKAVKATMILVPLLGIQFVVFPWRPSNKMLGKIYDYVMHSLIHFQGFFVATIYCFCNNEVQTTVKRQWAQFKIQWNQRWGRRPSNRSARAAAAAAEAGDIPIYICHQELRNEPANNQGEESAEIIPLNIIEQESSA
T1 sequence (looked up) 2: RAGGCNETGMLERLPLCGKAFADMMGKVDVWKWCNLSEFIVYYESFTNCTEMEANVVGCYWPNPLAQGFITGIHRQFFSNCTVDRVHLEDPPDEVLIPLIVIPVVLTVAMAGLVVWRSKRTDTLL

T2: human calcitonin receptor (human, UniProt P30988 25-474)
T2 sequence (looked up): T1 sequence (looked up) 1

B1: N^ε1-[2-[2-[2-(19-carboxynonadecanoylamino)ethoxy]ethoxy]acetyl]-[Arg17,Pro21,Pro27,His34]-h-amylin (peptide)
peptide: K([AEEA-C20 diacid])CNTATCATQRLANFLRHSSPNFGAIPSSTNVGHNTY-NH2
modifications: disulfide 2-7; N-terminus assumed
SMILES: CC[C@H](C)[C@H](NC(=O)[C@H](C)NC(=O)CNC(=O)[C@H](Cc1ccccc1)NC(=O)[C@H](CC(N)=O)NC(=O)[C@@H]1CCCN1C(=O)[C@H](CO)NC(=O)[C@H](CO)NC(=O)[C@H](Cc1c[nH]cn1)NC(=O)[C@H](CCCNC(=N)N)NC(=O)[C@H](CC(C)C)NC(=O)[C@H](Cc1ccccc1)NC(=O)[C@H](CC(N)=O)NC(=O)[C@H](C)NC(=O)[C@H](CC(C)C)NC(=O)[C@H](CCCNC(=N)N)NC(=O)[C@H](CCC(N)=O)NC(=O)[C@@H](NC(=O)[C@H](C)NC(=O)[C@@H]1CSSC[C@H](NC(=O)[C@@H](N)CCCCNC(=O)COCCOCCNC(=O)CCCCCCCCCCCCCCCCCCC(=O)O)C(=O)N[C@@H](CC(N)=O)C(=O)N[C@@H]([C@@H](C)O)C(=O)N[C@@H](C)C(=O)N[C@@H]([C@@H](C)O)C(=O)N1)[C@@H](C)O)C(=O)N1CCC[C@H]1C(=O)N[C@@H](CO)C(=O)N[C@@H](CO)C(=O)N[C@H](C(=O)N[C@@H](CC(N)=O)C(=O)N[C@H](C(=O)NCC(=O)N[C@@H](Cc1c[nH]cn1)C(=O)N[C@@H](CC(N)=O)C(=O)N[C@H](C(=O)N[C@@H](Cc1ccc(O)cc1)C(N)=O)[C@@H](C)O)C(C)C)[C@@H](C)O
notes: also called compound 91
B2: N^ε1-[2-[2-[2-[[(4S)-4-carboxy-4-(19-carboxynonadecanoylamino)butanoyl]amino]ethoxy]ethoxy]acetyl]-[Arg14,Arg17,Pro21,Pro27]-h-amylin (peptide)
peptide: K([AEEA-γGlu-C20 diacid])CNTATCATQRLARFLRHSSPNFGAIPSSTNVGSNTY-NH2
modifications: disulfide 2-7; N-terminus assumed
SMILES: CC[C@H](C)[C@H](NC(=O)[C@H](C)NC(=O)CNC(=O)[C@H](Cc1ccccc1)NC(=O)[C@H](CC(N)=O)NC(=O)[C@@H]1CCCN1C(=O)[C@H](CO)NC(=O)[C@H](CO)NC(=O)[C@H](Cc1c[nH]cn1)NC(=O)[C@H](CCCNC(=N)N)NC(=O)[C@H](CC(C)C)NC(=O)[C@H](Cc1ccccc1)NC(=O)[C@H](CCCNC(=N)N)NC(=O)[C@H](C)NC(=O)[C@H](CC(C)C)NC(=O)[C@H](CCCNC(=N)N)NC(=O)[C@H](CCC(N)=O)NC(=O)[C@@H](NC(=O)[C@H](C)NC(=O)[C@@H]1CSSC[C@H](NC(=O)[C@@H](N)CCCCNC(=O)COCCOCCNC(=O)CC[C@H](NC(=O)CCCCCCCCCCCCCCCCCCC(=O)O)C(=O)O)C(=O)N[C@@H](CC(N)=O)C(=O)N[C@@H]([C@@H](C)O)C(=O)N[C@@H](C)C(=O)N[C@@H]([C@@H](C)O)C(=O)N1)[C@@H](C)O)C(=O)N1CCC[C@H]1C(=O)N[C@@H](CO)C(=O)N[C@@H](CO)C(=O)N[C@H](C(=O)N[C@@H](CC(N)=O)C(=O)N[C@H](C(=O)NCC(=O)N[C@@H](CO)C(=O)N[C@@H](CC(N)=O)C(=O)N[C@H](C(=O)N[C@@H](Cc1ccc(O)cc1)C(N)=O)[C@@H](C)O)C(C)C)[C@@H](C)O
notes: also called compound 82
B3: N^ε1-[2-[2-[2-[[2-[2-[2-[[(4S)-4-carboxy-4-(19-carboxynonadecanoylamino)butanoyl]amino]ethoxy]ethoxy]acetyl]amino]ethoxy]ethoxy]acetyl]-[Arg17,Pro21,Pro27,Arg34 … (peptide)
peptide: K([AEEA-AEEA-γGlu-C20 diacid])CNTATCATQRLANFLRHSSPNFGAIPSSTNVGRNTY-NH2
modifications: disulfide 2-7; N-terminus assumed
SMILES: CC[C@H](C)[C@H](NC(=O)[C@H](C)NC(=O)CNC(=O)[C@H](Cc1ccccc1)NC(=O)[C@H](CC(N)=O)NC(=O)[C@@H]1CCCN1C(=O)[C@H](CO)NC(=O)[C@H](CO)NC(=O)[C@H](Cc1c[nH]cn1)NC(=O)[C@H](CCCNC(=N)N)NC(=O)[C@H](CC(C)C)NC(=O)[C@H](Cc1ccccc1)NC(=O)[C@H](CC(N)=O)NC(=O)[C@H](C)NC(=O)[C@H](CC(C)C)NC(=O)[C@H](CCCNC(=N)N)NC(=O)[C@H](CCC(N)=O)NC(=O)[C@@H](NC(=O)[C@H](C)NC(=O)[C@@H]1CSSC[C@H](NC(=O)[C@@H](N)CCCCNC(=O)COCCOCCNC(=O)COCCOCCNC(=O)CC[C@H](NC(=O)CCCCCCCCCCCCCCCCCCC(=O)O)C(=O)O)C(=O)N[C@@H](CC(N)=O)C(=O)N[C@@H]([C@@H](C)O)C(=O)N[C@@H](C)C(=O)N[C@@H]([C@@H](C)O)C(=O)N1)[C@@H](C)O)C(=O)N1CCC[C@H]1C(=O)N[C@@H](CO)C(=O)N[C@@H](CO)C(=O)N[C@H](C(=O)N[C@@H](CC(N)=O)C(=O)N[C@H](C(=O)NCC(=O)N[C@@H](CCCNC(=N)N)C(=O)N[C@@H](CC(N)=O)C(=O)N[C@H](C(=O)N[C@@H](Cc1ccc(O)cc1)C(N)=O)[C@@H](C)O)C(C)C)[C@@H](C)O
notes: also called compound 95
B4: N^ε1-[2-[2-[2-[[(4S)-4-carboxy-4-(19-carboxynonadecanoylamino)butanoyl]amino]ethoxy]ethoxy]acetyl]-[Arg14,Arg17,Pro21,Pro27,Pro31]-h-amylin (peptide)
peptide: K([AEEA-γGlu-C20 diacid])CNTATCATQRLARFLRHSSPNFGAIPSSTPVGSNTY-NH2
modifications: disulfide 2-7; N-terminus assumed
SMILES: CC[C@H](C)[C@H](NC(=O)[C@H](C)NC(=O)CNC(=O)[C@H](Cc1ccccc1)NC(=O)[C@H](CC(N)=O)NC(=O)[C@@H]1CCCN1C(=O)[C@H](CO)NC(=O)[C@H](CO)NC(=O)[C@H](Cc1c[nH]cn1)NC(=O)[C@H](CCCNC(=N)N)NC(=O)[C@H](CC(C)C)NC(=O)[C@H](Cc1ccccc1)NC(=O)[C@H](CCCNC(=N)N)NC(=O)[C@H](C)NC(=O)[C@H](CC(C)C)NC(=O)[C@H](CCCNC(=N)N)NC(=O)[C@H](CCC(N)=O)NC(=O)[C@@H](NC(=O)[C@H](C)NC(=O)[C@@H]1CSSC[C@H](NC(=O)[C@@H](N)CCCCNC(=O)COCCOCCNC(=O)CC[C@H](NC(=O)CCCCCCCCCCCCCCCCCCC(=O)O)C(=O)O)C(=O)N[C@@H](CC(N)=O)C(=O)N[C@@H]([C@@H](C)O)C(=O)N[C@@H](C)C(=O)N[C@@H]([C@@H](C)O)C(=O)N1)[C@@H](C)O)C(=O)N1CCC[C@H]1C(=O)N[C@@H](CO)C(=O)N[C@@H](CO)C(=O)N[C@H](C(=O)N1CCC[C@H]1C(=O)N[C@H](C(=O)NCC(=O)N[C@@H](CO)C(=O)N[C@@H](CC(N)=O)C(=O)N[C@H](C(=O)N[C@@H](Cc1ccc(O)cc1)C(N)=O)[C@@H](C)O)C(C)C)[C@@H](C)O
notes: also called compound 64
B5: N^ε1-[2-[2-[2-[[2-[2-[2-[[(4S)-4-carboxy-4-(19-carboxynonadecanoylamino)butanoyl]amino]ethoxy]ethoxy]acetyl]amino]ethoxy]ethoxy]acetyl]-[Arg17,Pro21,Pro27,Pro31 … (peptide)
peptide: K([AEEA-AEEA-γGlu-C20 diacid])CNTATCATQRLANFLRHSSPNFGAIPSSTPVGSNTY-NH2
modifications: disulfide 2-7; N-terminus assumed
SMILES: CC[C@H](C)[C@H](NC(=O)[C@H](C)NC(=O)CNC(=O)[C@H](Cc1ccccc1)NC(=O)[C@H](CC(N)=O)NC(=O)[C@@H]1CCCN1C(=O)[C@H](CO)NC(=O)[C@H](CO)NC(=O)[C@H](Cc1c[nH]cn1)NC(=O)[C@H](CCCNC(=N)N)NC(=O)[C@H](CC(C)C)NC(=O)[C@H](Cc1ccccc1)NC(=O)[C@H](CC(N)=O)NC(=O)[C@H](C)NC(=O)[C@H](CC(C)C)NC(=O)[C@H](CCCNC(=N)N)NC(=O)[C@H](CCC(N)=O)NC(=O)[C@@H](NC(=O)[C@H](C)NC(=O)[C@@H]1CSSC[C@H](NC(=O)[C@@H](N)CCCCNC(=O)COCCOCCNC(=O)COCCOCCNC(=O)CC[C@H](NC(=O)CCCCCCCCCCCCCCCCCCC(=O)O)C(=O)O)C(=O)N[C@@H](CC(N)=O)C(=O)N[C@@H]([C@@H](C)O)C(=O)N[C@@H](C)C(=O)N[C@@H]([C@@H](C)O)C(=O)N1)[C@@H](C)O)C(=O)N1CCC[C@H]1C(=O)N[C@@H](CO)C(=O)N[C@@H](CO)C(=O)N[C@H](C(=O)N1CCC[C@H]1C(=O)N[C@H](C(=O)NCC(=O)N[C@@H](CO)C(=O)N[C@@H](CC(N)=O)C(=O)N[C@H](C(=O)N[C@@H](Cc1ccc(O)cc1)C(N)=O)[C@@H](C)O)C(C)C)[C@@H](C)O
notes: also called compound 96
B6: N^ε1-[2-[2-[2-[[(4S)-4-carboxy-4-(19-carboxynonadecanoylamino)butanoyl]amino]ethoxy]ethoxy]acetyl]-[Ala14,Arg17,Pro21,Pro27,Pro31]-h-amylin (peptide)
peptide: K([AEEA-γGlu-C20 diacid])CNTATCATQRLAAFLRHSSPNFGAIPSSTPVGSNTY-NH2
modifications: disulfide 2-7; N-terminus assumed
SMILES: CC[C@H](C)[C@H](NC(=O)[C@H](C)NC(=O)CNC(=O)[C@H](Cc1ccccc1)NC(=O)[C@H](CC(N)=O)NC(=O)[C@@H]1CCCN1C(=O)[C@H](CO)NC(=O)[C@H](CO)NC(=O)[C@H](Cc1c[nH]cn1)NC(=O)[C@H](CCCNC(=N)N)NC(=O)[C@H](CC(C)C)NC(=O)[C@H](Cc1ccccc1)NC(=O)[C@H](C)NC(=O)[C@H](C)NC(=O)[C@H](CC(C)C)NC(=O)[C@H](CCCNC(=N)N)NC(=O)[C@H](CCC(N)=O)NC(=O)[C@@H](NC(=O)[C@H](C)NC(=O)[C@@H]1CSSC[C@H](NC(=O)[C@@H](N)CCCCNC(=O)COCCOCCNC(=O)CC[C@H](NC(=O)CCCCCCCCCCCCCCCCCCC(=O)O)C(=O)O)C(=O)N[C@@H](CC(N)=O)C(=O)N[C@@H]([C@@H](C)O)C(=O)N[C@@H](C)C(=O)N[C@@H]([C@@H](C)O)C(=O)N1)[C@@H](C)O)C(=O)N1CCC[C@H]1C(=O)N[C@@H](CO)C(=O)N[C@@H](CO)C(=O)N[C@H](C(=O)N1CCC[C@H]1C(=O)N[C@H](C(=O)NCC(=O)N[C@@H](CO)C(=O)N[C@@H](CC(N)=O)C(=O)N[C@H](C(=O)N[C@@H](Cc1ccc(O)cc1)C(N)=O)[C@@H](C)O)C(C)C)[C@@H](C)O
notes: also called compound 72

biological target: T1, human amylin receptor (amylin 3(a) …); experiment: cell-based or functional assay

| Ratio hCT/hAmylin funct. | hAmylin-R funct. EC50 [nM] | Binder |
| --- | --- | --- |
| 36.9 | 0.04 | B1 |
| 59.2 | 0.215 | B2 |
| – | 0.651 | B3 |
| – | 0.378 | B4 |
| – | 0.181 | B5 |
| – | 0.106 | B6 |

biological target: T2, human calcitonin receptor; experiment: cell-based or functional assay

| hCTR funct. EC50 [nM] | Binder |
| --- | --- |
| 1.48 | B1 |
| 12.7 | B2 |
| 21.5 | B3 |
| 22.9 | B4 |
| 3.8 | B5 |
| 4.76 | B6 |
